# Read-outs that look alike come from different tables or passages of the source.
# T1: human ST2L extracellular domain with C-terminal His6 tag (human, UniProt Q01638 19-328)
# T1 construct: also called huST2L-ECD; ST2L-ECD
# T1 sequence: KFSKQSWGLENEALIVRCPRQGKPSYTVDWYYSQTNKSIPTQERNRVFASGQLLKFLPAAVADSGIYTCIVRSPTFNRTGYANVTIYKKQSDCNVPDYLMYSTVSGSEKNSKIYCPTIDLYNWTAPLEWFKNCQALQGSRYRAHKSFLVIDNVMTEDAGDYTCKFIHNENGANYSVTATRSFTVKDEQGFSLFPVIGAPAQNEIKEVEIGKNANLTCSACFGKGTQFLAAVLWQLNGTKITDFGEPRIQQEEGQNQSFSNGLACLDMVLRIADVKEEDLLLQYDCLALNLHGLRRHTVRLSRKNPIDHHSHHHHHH
# T2: cynomolgus ST2L extracellular domain with C-terminal His6 tag (Macaca fascicularis (cyno), UniProt Q01638 19-321 (human entry))
# T2 construct: also called cynoST2L-ECD; cyno ST2L
# T2 chain: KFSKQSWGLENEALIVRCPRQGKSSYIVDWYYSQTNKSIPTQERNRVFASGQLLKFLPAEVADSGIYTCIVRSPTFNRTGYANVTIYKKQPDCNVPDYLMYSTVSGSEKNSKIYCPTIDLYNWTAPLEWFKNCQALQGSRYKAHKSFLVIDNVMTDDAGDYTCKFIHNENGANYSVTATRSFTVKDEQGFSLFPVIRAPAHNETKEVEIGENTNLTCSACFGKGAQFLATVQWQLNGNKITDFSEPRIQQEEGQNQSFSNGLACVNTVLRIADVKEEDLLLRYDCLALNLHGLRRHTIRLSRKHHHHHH
# T3: human ST2L on cells (human, UniProt Q01638 19-556)
# T3 sequence: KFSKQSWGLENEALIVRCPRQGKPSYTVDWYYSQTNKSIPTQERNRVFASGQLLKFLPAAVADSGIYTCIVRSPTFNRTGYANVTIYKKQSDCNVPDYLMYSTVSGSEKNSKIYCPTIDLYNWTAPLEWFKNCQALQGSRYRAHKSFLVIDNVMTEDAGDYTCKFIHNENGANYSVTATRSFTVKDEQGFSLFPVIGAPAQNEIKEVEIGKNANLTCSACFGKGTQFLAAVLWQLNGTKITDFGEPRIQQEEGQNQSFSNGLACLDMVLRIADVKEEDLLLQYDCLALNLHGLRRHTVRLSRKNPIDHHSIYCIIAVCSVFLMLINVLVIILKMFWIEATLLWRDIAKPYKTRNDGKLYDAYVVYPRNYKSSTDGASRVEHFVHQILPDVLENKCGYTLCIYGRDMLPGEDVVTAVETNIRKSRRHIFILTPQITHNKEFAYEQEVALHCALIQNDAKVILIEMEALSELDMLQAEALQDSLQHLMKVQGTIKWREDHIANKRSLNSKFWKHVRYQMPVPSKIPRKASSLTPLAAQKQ
# Columns and labels:
# 18AKF20-->TEG = assay: SPR, ProteOn XPR36, 25 C: mAb captured on anti-Fc surface, ST2L-D1D2 (HH-ST2L) wild type or variant injected, 1:1 model
# [1] = biological target: T1, human ST2L extracellular domain with …; assay: SPR, captured mAb, ST2L-ECD analyte
# [2] = biological target: T2, cynomolgus ST2L extracellular domain …; assay: SPR, captured mAb, ST2L-ECD analyte
# human ST2L on cells = biological target: T3, human ST2L on cells; assay: cell-based or functional assay
# [3] = biological target: T1, human ST2L extracellular domain with …; assay: SPR, captured mAb, ST2L-ECD analyte; remark: listed apart in the source
# Description: (§1) The interactions of anti-ST2L antibodies with His₆-tagged human ST2L-ECD and His₆-tagged cyno ST2L-ECD were studied by ProteOn using a ProteOn XPR36 at 25° C. A biosensor surface was prepared by coupling goat anti-human IgG Fcγ fragment specific antibody (Ab) to the surface of a GLC sensor chip using the manufacturer instructions for amine-coupling chemistry. The coupling buffer was 10 mM sodium acetate, pH 4.5. The goat anti-human IgG Fcγ (about 4500 response units) was immobilized in the horizontal orientation. The anti-ST2L antibodies were provided purified, or in crude supernatants. In either case these antibodies were diluted in PRB (PBS pH 7.4, supplemented with, 3 mM EDTA, and 0.005% Tween 20) to a concentration of about 0.5 μg/mL. The antibodies were captured (60-130 RU) in the vertical orientation onto the anti-human Fcγ antibody-modified GLC chip. Capture of anti-ST2L mAbs was followed by injection of huST2L ECD in solution (0.024 to 15 nM in 5-fold dilutions) or cynoST2L ECD in solution (0.020-5 nM in 4-fold dilutions) in the horizontal orientation. The association was monitored for 4 minutes in all experiments (200 μL injected at 50 μL/min). The dissociation was monitored for 30 minutes. Regeneration of the sensor surface was obtained with three 15 sec pulses of 10 mM glycine pH 1.5. The data were fit using the ProteOn software and using a 1:1 binding model with mass transfer.
# [4] = biological target: T2, cynomolgus ST2L extracellular domain …; assay: SPR, captured mAb, ST2L-ECD analyte
# Description: as §1
# [5] = biological target: T1, human ST2L extracellular domain with …; assay: RLB ELISA, inhibition of biotin-IL-33 binding to coated huST2L-ECD
# [6] = biological target: T1, human ST2L extracellular domain with …; assay: MSD electrochemiluminescence competition assay on plate-coated ST2L-ECD; unlabeled antibody titrated against 30 nM sulfo-tag labeled C2244 Fab
# Description: Competition binding assays were performed to evaluate different binding epitope groups for anti-ST2L mAbs. 5 μl (10 μg/ml) of ST2L-ECD protein was coated on MSD HighBind plate (Meso Scale Discovery, Gaithersburg, Md.) per well for 2 hr at room temperature. One-hundred and fifty microliters of 5% MSD Blocker A buffer (Meso Scale Discovery, Gaithersburg, Md.) was added to each well and incubated for 2 hr at room temperature. Plates were washed three times with 0.1 M HEPES buffer, pH 7.4, followed by the addition of the mixture of the MSD fluorescence dye (sulfo tag, NHS ester) labeled individual anti-ST2L antibody with different competitors. Labeled antibody, 10 or 30 nM, was incubated with increasing concentrations of competitor antibodies, from 1 nM to 2 or 5 μM, and then added to the designated wells in a volume of 25 μL mixture. After 2-hour incubation with gentle shaking at room temperature, plates were washed 3 times with 0.1M HEPES buffer (pH 7.4). MSD Read Buffer T was diluted with distilled water (4-fold) and dispensed at a volume of 150 μL/well and analyzed with a SECTOR Imager 6000.
binder,measurement,setting,value
"STLM208 (antibody, V domains shown) VH: EVQLLESGGGLVQPGGSLRLSCAASGFTFSIYDMIWVRQAPGKGLEWVSSIRGEGGGTYYADSVKGRFTISRDNSKNTLYLQMNSLRAEDTAVYYCARDPWSTEGSFFVLDYWGQGTLVTVSS VL: EIVLTQSPATLSLSPGERATLSCRASQSVDDDLAWYQQKPGQAPRLLIYDASNRATGIPARFSGSGSGTDFTLTISSLEPEDFAVYYCQQYITAPLTFGQGTKVEIK",Kd,18AKF20-->TEG,0.0193 nM
same,koff,18AKF20-->TEG,0.000229 s⁻¹
same,kon,18AKF20-->TEG,1.3e+07 M⁻¹ s⁻¹
"ST2M50 (antibody, V domains shown) VH: EVQLVQSGAEVKKPGESLKISCKGSGYSFTSYWIGWVRQMPGKGLEWMGIIYPGDSYTRYSPSFQGQVTISADKSISTAYLQWSSLKASDTAMYYCARLSGRFDYWGQGTLVTVSS VL: EIVLTQSPATLSLSPGERATLSCRASQSVSNALAWYQQKPGQAPRLLIYFASNRATGIPARFSGSGSGTDFTLTISSLEPEDFAVYYCQQFFNWPITFGQGTKVEIK",Kd,[1],0.045 nM
same,koff,[1],5.1e-05 s⁻¹
same,kon,[1],1.15e+06 M⁻¹ s⁻¹
same,Kd,[2],0.124 nM
same,koff,[2],0.00249 s⁻¹
same,kon,[2],2.01e+07 M⁻¹ s⁻¹
"STLM206 (antibody, V domains shown, IgG; VH3-23 / Vk-L6 frameworks) VH: EVQLLESGGGLVQPGGSLRLSCAASGFTFSIYDMIWVRQAPGKGLEWVSTIRGEGGSTYYADSVKGRFTISRDNSKNTLYLQMNSLRAEDTAVYYCARDPWSTEGSFFVLDYWGQGTLVTVSS VL: EIVLTQSPATLSLSPGERATLSCRASQSVDDDLAWYQQKPGQAPRLLIYDASNRATGIPARFSGSGSGTDFTLTISSLEPEDFAVYYCQQYITAPLTFGQGTKVEIK",RGA IC50,human ST2L on cells,0.67 µg/mL
same,Kd,[3],0.025 nM
same,koff,[3],0.00016 s⁻¹
same,kon,[3],6.39e+06 M⁻¹ s⁻¹
same,Kd,[4],0.006 nM
same,koff,[4],0.000583 s⁻¹
same,kon,[4],9.4e+07 M⁻¹ s⁻¹
same,IC50,[5],0.4 µg/mL
"STLM15 (antibody, human IgG2, V domains shown, Mouse hybridoma C2244 V regions cloned into human IgG2 background = STLM15; also called C2244; C2244/STLM15) VH: EVQLQESGPGLVKPSQSLSLTCTVTGFSITSDYAWNWIRQFPGSKLEWMGFISYSGDTSFNPSLKSRISVTRDTSKNQFFLQLNSVTTEDTATYYCASYDGYSFDYWGQGTTLTVSS VL: DIVLTQSPASLAISLGQRATISCRASKSVSTSGSSYMFWYQQKPGQPPKLLIYLASNLESGVPARFSGSGSGTDFTLNIHPVEEEDAAAYYCQHSREIPYTFGGGTKLEIK",IC50 (read off the curve),[6],~100 nM

# — US20130336980A1 (Janssen / Centocor, published 2013)
